Experimental data reported in the supplement of paper PMC10065799, “High-throughput profiling of sequence recognition by tyrosine kinases and SH2 domains using bacterial peptide display” (eLife, 2023).

What was measured:
SHP2-C SH2 = test: SH2 binding enrichment of the phosphorylated peptide, bacterial display (enrichment ratio); higher = better substrate or ligand; peptides without Tyr show the background
c-Src SH2 = test: as above
Grb2 SH2 = Grb2 SH2 (UniProt P62993); test: as above
Fer (mouse) = test: phosphorylation enrichment, bacterial display (enrichment ratio); higher = better substrate or ligand; peptides without Tyr show the background
FGFR3 = FGFR3 (UniProt P22607); test: as above
c-Abl (mouse) = test: as above
Fyn = Fyn (UniProt P06241); test: as above
Hck = Hck (UniProt P08631); test: as above
c-Src = test: as above
EPHB2 = EPHB2 (UniProt P29323); test: as above
EPHB1 = EPHB1 (UniProt P54762); test: as above
Jak2 = Jak2 (UniProt O60674); test: as above
FGFR1 = FGFR1 (UniProt P11362); test: as above
MERTK = MERTK (UniProt Q12866); test: as above
Fes = Fes (UniProt P07332); test: as above
AncSZ = test: as above
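Throughout, for SH2 binding enrichment of the phosphorylated peptide, bacterial display: peptide library displayed on the E. coli surface as eCPX fusions, selected cells deep-sequenced, score is each peptide's frequency after selection divided by its frequency in the input.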
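Throughout, for phosphorylation enrichment, bacterial display: 11-residue human phosphosite peptides and single-mutation variants displayed on the E. coli surface, counted by deep sequencing, each peptide's frequency after selection divided by its frequency in the unselected input library; frequency after pTyr selection over input frequency; kinase dosed for 20-30% of maximal phosphorylation in three min.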

Sequence of FGFR3 (P22607 whole entry, looked up): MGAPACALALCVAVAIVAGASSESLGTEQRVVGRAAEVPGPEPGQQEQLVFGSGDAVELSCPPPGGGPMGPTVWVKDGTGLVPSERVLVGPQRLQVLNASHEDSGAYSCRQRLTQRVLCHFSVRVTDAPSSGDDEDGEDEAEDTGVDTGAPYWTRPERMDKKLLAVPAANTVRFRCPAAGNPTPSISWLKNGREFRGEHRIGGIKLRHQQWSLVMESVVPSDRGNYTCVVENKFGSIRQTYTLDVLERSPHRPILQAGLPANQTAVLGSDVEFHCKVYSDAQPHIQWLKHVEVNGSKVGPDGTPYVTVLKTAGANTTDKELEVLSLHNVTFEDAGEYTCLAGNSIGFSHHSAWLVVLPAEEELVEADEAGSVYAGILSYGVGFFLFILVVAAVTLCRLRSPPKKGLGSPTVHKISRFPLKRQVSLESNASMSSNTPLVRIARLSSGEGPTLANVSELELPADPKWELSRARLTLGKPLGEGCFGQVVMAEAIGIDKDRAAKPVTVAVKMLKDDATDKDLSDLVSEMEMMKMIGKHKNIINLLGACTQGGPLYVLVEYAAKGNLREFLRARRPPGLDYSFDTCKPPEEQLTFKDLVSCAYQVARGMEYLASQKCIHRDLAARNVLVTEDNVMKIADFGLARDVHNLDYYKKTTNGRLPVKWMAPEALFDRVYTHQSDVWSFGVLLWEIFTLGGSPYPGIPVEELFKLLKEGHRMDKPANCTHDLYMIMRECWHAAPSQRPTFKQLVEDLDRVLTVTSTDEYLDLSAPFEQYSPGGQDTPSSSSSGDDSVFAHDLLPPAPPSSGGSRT
Sequence of MERTK (Q12866 whole entry, looked up): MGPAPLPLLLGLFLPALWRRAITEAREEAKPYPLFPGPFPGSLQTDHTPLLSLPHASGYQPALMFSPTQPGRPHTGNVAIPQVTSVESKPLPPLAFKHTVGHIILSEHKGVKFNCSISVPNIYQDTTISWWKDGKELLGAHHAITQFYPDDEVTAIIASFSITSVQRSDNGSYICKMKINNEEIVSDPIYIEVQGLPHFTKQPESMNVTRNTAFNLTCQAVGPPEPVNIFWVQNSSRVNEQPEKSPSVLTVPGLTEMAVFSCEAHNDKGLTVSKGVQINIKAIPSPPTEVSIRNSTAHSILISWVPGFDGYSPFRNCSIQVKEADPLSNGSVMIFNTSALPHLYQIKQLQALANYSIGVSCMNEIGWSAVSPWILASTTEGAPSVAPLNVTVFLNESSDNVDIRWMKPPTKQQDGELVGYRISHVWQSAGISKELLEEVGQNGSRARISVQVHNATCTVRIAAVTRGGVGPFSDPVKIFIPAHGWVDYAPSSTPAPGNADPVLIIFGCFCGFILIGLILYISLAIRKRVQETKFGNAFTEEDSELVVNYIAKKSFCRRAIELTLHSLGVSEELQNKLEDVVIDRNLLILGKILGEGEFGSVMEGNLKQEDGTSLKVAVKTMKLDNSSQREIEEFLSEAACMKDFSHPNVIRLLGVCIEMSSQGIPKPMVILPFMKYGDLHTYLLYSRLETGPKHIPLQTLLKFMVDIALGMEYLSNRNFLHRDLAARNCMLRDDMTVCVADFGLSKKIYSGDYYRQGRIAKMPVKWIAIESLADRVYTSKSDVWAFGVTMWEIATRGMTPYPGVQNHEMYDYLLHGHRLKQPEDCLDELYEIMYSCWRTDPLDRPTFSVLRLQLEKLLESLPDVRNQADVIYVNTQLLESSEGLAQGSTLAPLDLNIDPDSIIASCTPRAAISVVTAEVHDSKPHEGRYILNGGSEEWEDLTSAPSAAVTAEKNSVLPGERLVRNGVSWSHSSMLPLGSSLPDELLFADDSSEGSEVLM
Sequence of Fes (P07332 whole entry, looked up): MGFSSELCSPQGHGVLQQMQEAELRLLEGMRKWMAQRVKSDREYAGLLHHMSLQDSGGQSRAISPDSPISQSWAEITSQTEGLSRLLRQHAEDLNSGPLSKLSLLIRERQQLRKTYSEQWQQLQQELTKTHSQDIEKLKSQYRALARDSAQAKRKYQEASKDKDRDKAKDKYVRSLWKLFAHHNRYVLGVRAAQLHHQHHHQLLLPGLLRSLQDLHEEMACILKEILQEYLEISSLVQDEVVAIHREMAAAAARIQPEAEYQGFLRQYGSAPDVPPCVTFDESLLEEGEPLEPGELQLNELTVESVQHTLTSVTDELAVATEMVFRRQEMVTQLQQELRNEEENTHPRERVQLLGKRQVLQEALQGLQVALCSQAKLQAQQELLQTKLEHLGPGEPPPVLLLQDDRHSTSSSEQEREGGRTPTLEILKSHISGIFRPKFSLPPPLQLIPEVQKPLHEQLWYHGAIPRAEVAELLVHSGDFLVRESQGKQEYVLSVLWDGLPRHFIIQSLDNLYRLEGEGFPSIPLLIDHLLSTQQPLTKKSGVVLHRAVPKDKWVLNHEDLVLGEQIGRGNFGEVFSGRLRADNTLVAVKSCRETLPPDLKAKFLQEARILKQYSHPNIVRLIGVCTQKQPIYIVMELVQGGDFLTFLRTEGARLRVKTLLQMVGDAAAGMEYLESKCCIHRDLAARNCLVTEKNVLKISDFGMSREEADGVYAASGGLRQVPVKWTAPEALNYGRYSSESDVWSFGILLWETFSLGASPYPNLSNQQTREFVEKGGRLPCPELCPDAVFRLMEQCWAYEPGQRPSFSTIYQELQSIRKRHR
Sequence of Grb2 SH2 (P62993 whole entry, looked up): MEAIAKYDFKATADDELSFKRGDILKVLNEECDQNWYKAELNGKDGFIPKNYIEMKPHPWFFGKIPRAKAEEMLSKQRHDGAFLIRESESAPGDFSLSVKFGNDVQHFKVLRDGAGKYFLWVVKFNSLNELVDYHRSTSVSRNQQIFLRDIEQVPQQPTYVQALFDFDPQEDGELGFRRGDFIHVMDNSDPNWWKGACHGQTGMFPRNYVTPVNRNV
Sequence of EPHB2 (P29323 whole entry, looked up): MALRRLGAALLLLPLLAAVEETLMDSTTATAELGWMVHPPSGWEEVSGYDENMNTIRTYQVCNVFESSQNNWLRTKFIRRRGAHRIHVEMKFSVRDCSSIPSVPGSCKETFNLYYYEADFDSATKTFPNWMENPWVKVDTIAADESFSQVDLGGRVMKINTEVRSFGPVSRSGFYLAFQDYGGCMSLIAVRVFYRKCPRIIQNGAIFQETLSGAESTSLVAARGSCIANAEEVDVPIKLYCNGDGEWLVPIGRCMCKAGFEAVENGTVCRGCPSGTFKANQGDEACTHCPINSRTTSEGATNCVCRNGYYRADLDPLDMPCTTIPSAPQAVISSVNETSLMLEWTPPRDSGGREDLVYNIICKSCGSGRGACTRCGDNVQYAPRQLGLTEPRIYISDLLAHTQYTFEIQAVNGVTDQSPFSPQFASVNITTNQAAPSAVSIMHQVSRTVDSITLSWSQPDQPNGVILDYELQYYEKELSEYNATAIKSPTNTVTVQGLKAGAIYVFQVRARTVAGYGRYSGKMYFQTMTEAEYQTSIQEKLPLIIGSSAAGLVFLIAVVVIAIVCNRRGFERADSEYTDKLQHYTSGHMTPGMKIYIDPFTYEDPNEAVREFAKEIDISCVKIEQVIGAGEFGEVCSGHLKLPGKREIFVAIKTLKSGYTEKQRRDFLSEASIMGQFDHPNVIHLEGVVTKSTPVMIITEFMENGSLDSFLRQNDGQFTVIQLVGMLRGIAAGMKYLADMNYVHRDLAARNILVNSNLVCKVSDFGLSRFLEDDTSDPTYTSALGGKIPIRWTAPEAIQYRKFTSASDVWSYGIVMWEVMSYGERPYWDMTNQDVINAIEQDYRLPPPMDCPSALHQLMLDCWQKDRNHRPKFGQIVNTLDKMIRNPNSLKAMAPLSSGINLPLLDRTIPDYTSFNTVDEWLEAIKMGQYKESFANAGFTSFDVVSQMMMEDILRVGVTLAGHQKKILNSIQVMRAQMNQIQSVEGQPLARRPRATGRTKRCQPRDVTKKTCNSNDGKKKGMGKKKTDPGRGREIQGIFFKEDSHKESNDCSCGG
Sequence of Hck (P08631 whole entry, looked up): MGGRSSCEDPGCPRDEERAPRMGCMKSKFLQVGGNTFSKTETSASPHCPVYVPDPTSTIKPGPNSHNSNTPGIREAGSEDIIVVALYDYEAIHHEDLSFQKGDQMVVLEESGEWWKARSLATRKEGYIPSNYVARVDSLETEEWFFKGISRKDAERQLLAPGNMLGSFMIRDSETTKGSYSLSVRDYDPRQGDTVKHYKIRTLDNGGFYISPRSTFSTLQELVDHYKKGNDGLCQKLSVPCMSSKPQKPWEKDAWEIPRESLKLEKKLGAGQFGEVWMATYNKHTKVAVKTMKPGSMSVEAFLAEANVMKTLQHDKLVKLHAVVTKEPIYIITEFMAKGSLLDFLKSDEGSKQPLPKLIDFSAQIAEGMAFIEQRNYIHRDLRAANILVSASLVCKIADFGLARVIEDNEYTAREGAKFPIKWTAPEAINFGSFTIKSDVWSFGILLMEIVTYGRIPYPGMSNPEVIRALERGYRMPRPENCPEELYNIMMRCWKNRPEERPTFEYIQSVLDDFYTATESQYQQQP
Sequence of Fyn (P06241 whole entry, looked up): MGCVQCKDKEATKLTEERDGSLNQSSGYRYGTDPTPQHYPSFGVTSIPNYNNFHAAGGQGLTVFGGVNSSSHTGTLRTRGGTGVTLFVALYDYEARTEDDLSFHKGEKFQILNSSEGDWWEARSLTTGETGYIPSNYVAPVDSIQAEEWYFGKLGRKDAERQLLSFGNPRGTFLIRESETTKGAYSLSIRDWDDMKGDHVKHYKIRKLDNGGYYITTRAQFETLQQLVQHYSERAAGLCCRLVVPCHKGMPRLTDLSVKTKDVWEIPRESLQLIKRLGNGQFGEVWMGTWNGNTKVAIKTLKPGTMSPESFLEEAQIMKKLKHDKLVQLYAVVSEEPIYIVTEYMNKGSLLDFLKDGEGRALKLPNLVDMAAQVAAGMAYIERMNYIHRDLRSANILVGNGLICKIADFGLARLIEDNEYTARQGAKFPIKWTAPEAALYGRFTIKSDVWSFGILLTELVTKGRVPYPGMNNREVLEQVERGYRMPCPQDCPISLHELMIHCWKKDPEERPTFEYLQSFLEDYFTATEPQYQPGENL

| Sequence | SH2 binding enrichment (SHP2-C SH2) | SH2 binding enrichment (c-Src SH2) | SH2 binding enrichment (Grb2 SH2) | phosphorylation enrichment (Fer (mouse)) | phosphorylation enrichment (FGFR3) | phosphorylation enrichment (c-Abl (mouse)) | phosphorylation enrichment (Fyn) | phosphorylation enrichment (Hck) | phosphorylation enrichment (c-Src) | phosphorylation enrichment (EPHB2) | phosphorylation enrichment (EPHB1) | phosphorylation enrichment (Jak2) | phosphorylation enrichment (FGFR1) | phosphorylation enrichment (MERTK) | phosphorylation enrichment (Fes) | phosphorylation enrichment (AncSZ) |
| --- | --- | --- | --- | --- | --- | --- | --- | --- | --- | --- | --- | --- | --- | --- | --- | --- |
| FDFKKYGKGLR [ZNF445_Y433_YF] | 0.751 | 1.14 | 1.19 | 0.304 | 0.498 | 0.392 | 0.318 | 0.45 | 0.484 | 0.436 | 0.426 | 0.525 | 0.575 | 0.389 | 0.671 | 0.531 |
| FDNPIYQKTTE [LDLR_Y828_V827I] | 0.966 | 0.632 | 1.03 | 1.59 | 0.49 | 1.82 | 1.1 | 2.76 | 1.44 | 1.18 | 1.16 | 0.681 | 0.543 | 2.38 | 0.751 | 0.833 |
| FEDTLYTVLHR [UNC13D_Y61_A59T_YF] | 0.426 | 0.711 | 0.771 | 5.83 | 1.5 | 1.99 | 5.65 | 7.58 | 6.22 | 4.95 | 9.72 | 1.56 | 1.18 | 7.86 | 1.38 | 2.45 |
| FFLGKYLQEVL [KLB_Y910_YF] | 1.71 | 1.29 | 1.99 | 0.441 | 0.498 | 0.665 | 0.342 | 0.42 | 0.469 | 0.474 | 0.486 | 0.911 | 0.436 | 0.391 | 1.19 | 0.963 |
| FGFPGYQSKHF [TIMP3_Y177_YF] | 0.75 | 0.588 | 1.07 | 0.406 | 0.499 | 0.574 | 0.521 | 0.496 | 0.401 | 0.398 | 0.422 | 0.5 | 0.47 | 0.405 | 0.651 | 0.534 |
| FGGLRYGFGVL [KRTAP20-2_Y13_YF] | 0.913 | 0.674 | 0.732 | 0.351 | 0.56 | 0.608 | 0.348 | 0.399 | 0.35 | 0.379 | 0.443 | 0.753 | 0.733 | 0.42 | 0.876 | 0.786 |
| FGIAQYCCRMG [LRRK2_Y2023_YF] | 0.836 | 0.936 | 1.26 | 0.467 | 0.584 | 1.34 | 0.423 | 0.777 | 0.417 | 6.66 | 0.751 | 0.625 | 0.614 | 1.25 | 0.797 | 0.908 |
| FGSSSSGGAGG [RPA2_Y14_Y14S_YF] | 0.622 | 0.358 | 0.854 | 0.417 | 0.455 | 0.511 | 0.419 | 0.312 | 0.458 | 0.31 | 0.287 | 0.669 | 0.409 | 0.394 | 0.638 | 0.499 |
| FIAVGYVDDSQ [HLA-A_Y51_T55S] | 0.959 | 0.704 | 0.91 | 0.444 | 0.629 | 0.617 | 0.333 | 0.445 | 0.394 | 0.491 | 0.469 | 0.839 | 0.391 | 0.3 | 1.08 | 0.783 |
| FLAATYPTLGQ [NF1_Y2508_V2511L_YF] | 0.814 | 0.572 | 0.866 | 0.4 | 0.572 | 0.549 | 0.422 | 0.389 | 0.404 | 0.4 | 0.723 | 0.523 | 0.424 | 0.356 | 0.674 | 0.572 |
| FLAVGYHKLHI [IDS_Y225_P228L] | 1.42 | 1.25 | 1.36 | 0.432 | 0.804 | 0.833 | 0.647 | 0.427 | 0.462 | 0.575 | 0.545 | 1.13 | 0.447 | 0.471 | 1.14 | 1.03 |
| FLAVGYHKPRI [IDS_Y225_H229R] | 1.6 | 1.64 | 1.61 | 0.402 | 0.5 | 0.481 | 0.426 | 0.374 | 0.305 | 0.44 | 0.477 | 0.502 | 0.379 | 0.272 | 0.838 | 0.638 |
| FLAVGYHMPHI [IDS_Y225_K227M] | 1.18 | 3.36 | 1.1 | 0.402 | 0.562 | 1.33 | 0.395 | 0.51 | 0.334 | 0.403 | 0.346 | 0.862 | 0.485 | 0.313 | 0.833 | 0.761 |
| FLGKGYSDGGC [MC4R_Y35_S30F] | 0.832 | 0.509 | 1.1 | 0.542 | 0.623 | 0.818 | 0.548 | 0.579 | 0.592 | 0.567 | 0.503 | 0.95 | 0.672 | 0.552 | 1.14 | 0.876 |
| FPDFVYKCIKA [DPYSL2_Y479_R481C] | 0.727 | 0.538 | 0.818 | 0.533 | 0.788 | 0.95 | 0.51 | 0.563 | 0.595 | 0.613 | 0.691 | 1.44 | 0.616 | 0.446 | 1.39 | 1.35 |
| FPKVRYHWLVL [APTX_Y214_A212V_YF] | 0.999 | 0.892 | 1.31 | 0.529 | 0.631 | 0.978 | 0.42 | 0.425 | 0.513 | 0.672 | 0.81 | 1.18 | 0.428 | 0.461 | 1.21 | 0.994 |
| FPLELYERVRM [PRKCG_Y312_YF] | 0.722 | 0.485 | 0.832 | 2.39 | 0.932 | 0.804 | 0.629 | 1.24 | 0.488 | 0.982 | 1.94 | 1.09 | 0.988 | 0.444 | 1.28 | 1.39 |
